Data on eleven molecules can be found in patent US20200255508A1 (AbbVie / Abbott, published 2020).

In assay [1] the target is T1, human DLL4 extracellular domain (human, UniProt Q9NR61 27-529).
T1 construct: extracellular domain; coated on plates in the sVEGFR1 assay; also called huDLL4 ECD; Human DLL4 ECD
Put plainly: Biacore SPR.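 Note: surface plasmon resonance on a Biacore instrument, antibodies captured on immobilized anti-human Fc, purified recombinant DLL4 extracellular domain injected as analyte, binding followed over time.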

The target in assay [2] is T2, mouse DLL4 extracellular domain (mouse, UniProt Q9JI71 27-532).
T2 construct: extracellular domain; also called muDLL4 ECD; Mouse DLL4 ECD
T2 sequence (Q9JI71 27-532): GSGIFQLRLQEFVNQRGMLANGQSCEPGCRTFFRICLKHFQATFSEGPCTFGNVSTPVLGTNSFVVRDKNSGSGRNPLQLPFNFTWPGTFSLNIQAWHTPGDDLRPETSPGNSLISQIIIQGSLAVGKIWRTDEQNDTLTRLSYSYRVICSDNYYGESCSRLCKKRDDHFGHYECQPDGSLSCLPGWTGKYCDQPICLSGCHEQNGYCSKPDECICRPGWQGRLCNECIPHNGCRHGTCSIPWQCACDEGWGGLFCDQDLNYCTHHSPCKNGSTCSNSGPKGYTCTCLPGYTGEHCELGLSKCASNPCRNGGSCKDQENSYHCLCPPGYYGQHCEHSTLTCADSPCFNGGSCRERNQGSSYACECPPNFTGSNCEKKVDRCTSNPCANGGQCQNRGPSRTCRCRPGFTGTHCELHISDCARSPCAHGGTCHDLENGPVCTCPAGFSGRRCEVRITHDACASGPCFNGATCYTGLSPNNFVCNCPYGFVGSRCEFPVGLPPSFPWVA
Put plainly: Biacore SPR.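 Note: surface plasmon resonance on a Biacore instrument, antibodies captured on immobilized anti-human Fc, purified recombinant DLL4 extracellular domain injected as analyte, binding followed over time.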

Assay [3] deals with T3, human DLL4 on the cell surface (human, UniProt Q9NR61 27-685).
T3 construct: whole, on cells; also called HEK293-hDLL4; hDLL4-293G
Put plainly: FACS on DLL4 cells.

Assay [4] concerns the target T4, mouse DLL4 on the cell surface (mouse, UniProt Q9JI71 27-686).
T4 construct: whole, on cells; also called HEK293-mDLL4; mDLL4-293G
Put plainly: FACS on DLL4 cells.

The target in assay [5] is T3, human DLL4 on the cell surface. Put plainly: competition FACS, competitor huNotch-1.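 Note: stable cell lines displaying human or mouse DLL4 on their surface, Notch binding detected by flow cytometry via R-phycoerythrin streptavidin fluorescence.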
The target in assay [6] is T4, mouse DLL4 on the cell surface. Put plainly: competition FACS, competitor huNotch-1.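 Note: stable cell lines displaying human or mouse DLL4 on their surface, Notch binding detected by flow cytometry via R-phycoerythrin streptavidin fluorescence.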

T4 sequence (Q9JI71 27-686): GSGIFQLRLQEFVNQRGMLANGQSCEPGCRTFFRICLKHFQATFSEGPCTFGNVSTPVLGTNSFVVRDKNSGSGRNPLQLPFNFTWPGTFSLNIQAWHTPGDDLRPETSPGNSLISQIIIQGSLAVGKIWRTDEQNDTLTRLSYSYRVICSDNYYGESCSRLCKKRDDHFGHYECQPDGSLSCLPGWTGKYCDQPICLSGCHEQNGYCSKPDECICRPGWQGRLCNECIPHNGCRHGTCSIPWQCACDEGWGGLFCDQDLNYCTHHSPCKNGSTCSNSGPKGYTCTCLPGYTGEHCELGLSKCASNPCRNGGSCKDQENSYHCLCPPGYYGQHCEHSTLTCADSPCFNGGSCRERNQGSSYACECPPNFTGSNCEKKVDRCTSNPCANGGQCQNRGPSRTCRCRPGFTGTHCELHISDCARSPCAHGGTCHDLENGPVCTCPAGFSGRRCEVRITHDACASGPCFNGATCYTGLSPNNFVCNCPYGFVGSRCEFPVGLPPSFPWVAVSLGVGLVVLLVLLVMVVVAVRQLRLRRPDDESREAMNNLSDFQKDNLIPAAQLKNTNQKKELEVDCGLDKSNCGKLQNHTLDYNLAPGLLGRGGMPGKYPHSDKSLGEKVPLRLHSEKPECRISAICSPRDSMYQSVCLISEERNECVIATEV

B1: E9.13 (antibody, V domains shown)
VH: EVQLQESGPGLVKPSETLSLTCTVSGGSISSSSYYWGWIRQPPGKGLEWIGDIYYTGSTYYNPSLKSRVTISVDTSKNQFSLKLSSVTAADTAVYYCAREDVILRGGSDYWGQGTLVTVSS
VL: SYELTQPPSVSVSPGQTASITCSGDTLGDKYVSWYQQKPGQSPVLVIYEDSERPSGIPERFSGSNSGDTATLTISGTQPMDEADYYCQAWDSETGVFGSGTKVTVL
notes: also called DLL4-E9-13 hIgG1/L
With B1, in assay [1], the Kd (commonly the constant that tells how readily two partners part at equilibrium) was found to be 1.33 nM; the off-rate (koff) (usually the first-order rate constant of dissociation) was 4.97e-05 s⁻¹; the kon – broadly, a measure of how fast the partners come together – came out at 37400 M⁻¹ s⁻¹. Also, in assay [2], the Kd was 4.89 nM, the koff was found to be 0.000212 s⁻¹ and the association rate constant (kon) worked out at 43400 M⁻¹ s⁻¹.

B2: E9.1F (antibody, V domains shown)
VH: EVQLQESGPGLVKPSETLSLTCTVSGGSISSGSYYWGWIRQPPGKGLEWIGDINYIGSTYYNPSLKSRVTISVDTSKNQFSLKLSSVTAADTAVYYCAREAVSFGGGADSWGQGTLVTVSS
VL: SYELTQPPSVSVSPGQTASITCSGDRLGDKYVSWYQQKPGQSPVLVIYEDSQRPSGIPERFSGSNSGDTATLTISGTQAMDEADYYCQAWDMEAGVFGSGTKVTVL
notes: also called E9.IF
For the molecule B2, in assay [1], binding was characterised by a dissociation constant (Kd) of 0.05 nM, the off-rate (koff) came to 1.16e-05 s⁻¹ and the kon amounted to 218000 M⁻¹ s⁻¹. In assay [3], the midpoint of the response, the EC50, lay at 2.65 nM. Besides, a half-maximal response in assay [4] (EC50) required 0.37 nM. The IC50 (as a rule, the concentration needed to halve the response being measured) in assay [5] is 6.55 nM. In addition, the IC50 in assay [6] worked out at 0.65 nM.

B3: E9.48 (antibody, V domains shown)
VH: EVQLQESGPGLVKPSETLSLTCTVSGGSISSSGYYWGWIRQPPGKGLEWIGDINYRGSTYYNPSLKSRVTISVDTSKNQFSLKLSSVTAADTAVYYCAREDVILRGGSDYWGQGTLVTVSS
VL: SYELTQPPSVSVSPGQTASITCSGQRLGDKYASWYQQKPGQSPVLVIYEDSKRPSGIPERFSGSNSGDTATLTISGTQPMDEADYYCQAWDRDTGVFGYGTKVTVL
notes: also called DLL4-E9-48 hIgG1/L
In assay [1], B3 had a Kd of 6.92 nM, an off-rate (koff) of 7.59e-05 s⁻¹ and an on-rate constant (kon) of 11000 M⁻¹ s⁻¹. Further, in assay [2], the Kd was 2.53 nM, the dissociation rate constant (koff) turned out to be 4.17e-05 s⁻¹ and the on-rate constant (kon) was determined as 16500 M⁻¹ s⁻¹. Further, the half-inhibitory concentration (IC50) in assay [5] was determined as 9.12 nM. The molecule also showed an IC50 in assay [6] of 1.3 nM.

B4: E9.14 (antibody, V domains shown)
VH: EVQLQESGPGLVKPSETLSLTCTVSGGSISNSRYHWGWIRQSPGKGLEWIGDIYYTGSTYYNPSLKSRVTISVDTSKNQFSLKLSSVTAEDTAVYYCAREDVILRGGSDYWGQGTLVTVSS
VL: SYELTQPPSVSVSPGQTASITCSGQRLGDKYASWYQQKPGQSPVLVIYEDSKRPSGIPERFSGSNSGDTATLTISGTQPMDEADYYCQAWDRDTGVFGYGTKVTVL
notes: also called DLL4-E9-14 hIgG1/L
In assay [1], B4 registered a Kd of 9.14 nM, an off-rate constant (koff) of 0.000365 s⁻¹ and an on-rate constant (kon) of 39900 M⁻¹ s⁻¹. In addition, in assay [2], the affinity, expressed as Kd, was 3.49 nM; the koff was found to be 0.000136 s⁻¹; the association rate constant (kon) turned out to be 38900 M⁻¹ s⁻¹.

B5: E9.65 (antibody, V domains shown)
VH: EVQLQESGPGLVKPSETLSLTCTVSGGSIRNSRYHWGWIRQPPGKGLEWIGDIYYTGSTYYNPSLKGRVTISVDTSKNQFSLKLSSVTAADTAVYYCAREDVILRGGSDYWGQGTLVTVSS
VL: SYELTQPPSVSVSPGQTASITCSGQRLGDKYASWYQQKPGQSPVLVIYEDSKRPSGIPERFSGSNSGDTATLTISGTQPMDEADYYCQAWDRDTGVFGYGTKVTVL
Turning to B5, in assay [1], the Kd was found to be 14 nM, the koff was determined as 0.000363 s⁻¹ and the kon came to 25900 M⁻¹ s⁻¹. In assay [2], this molecule gave an equilibrium dissociation constant (Kd) of 5.27 nM, a dissociation rate constant (koff) of 0.000136 s⁻¹ and a kon of 25700 M⁻¹ s⁻¹.

B6: E9.71(M) (antibody, human IgG1, V domains shown)
VH: EVQLQESGPGLVKPSETLSLTCTVSGGSISSSSYYWGWIRQPPGKGLEWIGDIYYTGSTYYNPSLKSRVTISVDTSKNQFSLKLSSVTAADTAVYYCARQALAMGGGSDKWGQGTLVTVSS
VL: SYELTQPPSVSVSPGQTASITCSGQRLGDKYASWYQQKPGQSPVLVIYEDSKRPSGIPERFSGSNSGDTATLTISGTQPMDEADYYCQAWDRDTGVFGGGTKLTVLG
Turning to B6, the results for the EC50 in assay [3] and in assay [4] were 0.27 nM and 0.29 nM, respectively. The IC50 in assay [5] amounted to 2.12 nM; in assay [6] it was 0.18 nM.

B7: E9.18 (antibody, V domains shown)
VH: EVQLQESGPGLVKPSETLSLTCTVSGGSISSSGYYWGWIRQPPGKGLEWIGDINYAGSTYYNPSLKSRVTISVDTSKNQFSLKLSSVTAADTAVYYCAREDVILRGGSDYWGQGTLVTVSS
VL: SYELTQPPSVSVSPGQTASITCSGQRLGDKYASWYQQKPGQSPVLVIYEDSKRPSGIPERFSGSNSGDTATLTISGTQPMDEADYYCQAWDRDTGVFGYGTKVTVL
notes: also called DLL4-E9-18 hIgG1/L
In assay [1], B7 gave a Kd of 1.18 nM, a koff of 1.84e-05 s⁻¹ and a kon of 15700 M⁻¹ s⁻¹. In assay [2], this molecule came in with a Kd of 0.73 nM, a koff of 1.68e-05 s⁻¹ and an on-rate constant (kon) of 23200 M⁻¹ s⁻¹.

B8: A10.L45 (antibody, V domains shown)
VH: EVQLVESGGGLVKSGGSLRLSCAASGFTFRSHWMSWVRQAPGKGLEWVAIISYDGSNKYSADSVKGRFTISRDNSKNTLYLQLNSLRAEDTAVYYCAKAGGGNVGFDIWGQGTMVTVSS
VL: SYELTQPPSVSVSPGQTASITCSADELGTQYVSWYQQKPGQSPVLVIYQDATRPSGIPERFSGSNSGNTATLTISGTQAMDEADYYCQAWDRSGVVFGGGTKLTVL
In assay [1], B8 displayed a Kd of 0.72 nM, a koff of 3.16e-05 s⁻¹ and a kon of 44000 M⁻¹ s⁻¹. Besides, the binding result in assay [2] is given as “no binding”.

B9: A10.K30 (antibody, V domains shown)
VH: EVQLVESGGGVVQPGGSLRLSCAASGFTFGNHWMSWVRQAPGKGLEWVADISSDGRYKYYADSVKGRFTISRDNSKNTLYLQLNSLRAEDTAVYYCAKAGGGNVGFDIWGQGTMVTVSS
VL: SYELTQPPSVSVSPGQTASITCSADKLGTKYVSWYQQKPGQSPVLVIYQDAKRPSGIPERFSGSNSGNTATLTISGTQTMDEADYLCQSWDRSDVVFGGGTKLTVL
As for B9, in assay [1], the Kd stood at 7.69 nM, the dissociation rate constant (koff) was 0.000274 s⁻¹ and the kon is 35700 M⁻¹ s⁻¹. In addition, the binding result in assay [2] was “no binding”.

B10: A10.K42 (antibody, V domains shown)
VH: EVQLVESGGGLVQPGGSLRLSCAASGFTFQSHWMSWVRQAPGKGLEWVAMISYDGTIKYYADSVKGRFTISRDNSKNTLYLQLNSLRAEDTAVYYCAKAGGGNVGFDIWGQGTMVTVSS
VL: SYELTQPPSVSVSPGQTASITCSADKLGTKYVSWYQQKPGQSPVLVIYQDAKRPSGIPERFSGSNSGNTATLTISGTQTMDEADYLCQSWDRSDVVFGGGTKLTVL
In assay [1], B10 yielded a Kd of 4.06 nM, an off-rate (koff) of 0.000406 s⁻¹ and an on-rate (kon) of 100000 M⁻¹ s⁻¹. Moreover, the binding result in assay [2] is given as “no binding”.

B11: A10.L73 (antibody, V domains shown)
VH: EVQLVESGGGLVKSGGSLRLSCAASGFTFRSHWMSWVRQAPGKGLEWVAIISYDGSNKYSADSVKGRFTISRDNSKNTLYLQLNSLRAEDTAVYYCAKAGGGNVGFDIWGQGTMVTVSS
VL: SYELTQPPSVSVSPGQTASITCSGDNLGSQYVSWYQQKPGQSPVLVIYQDAQRPSGIPERFSGSNSGNTATLTISGTQAMDEADYYCQAWDRSGVVFGGGTKLTVL
In assay [1], B11 showed a Kd of 0.19 nM, a koff of 9.5e-06 s⁻¹ and a kon of 50700 M⁻¹ s⁻¹. Besides, the binding result in assay [2] is listed as “no binding”.
